Columns and labels:
Assay in all cases: cell-based or functional assay
[1] = biological target: HIV-1 Env of strain Q23.17 (HIV-1)
[2] = biological target: HIV-1 strain 620345.c01 envelope (gp120) (HIV-1)
[3] = biological target: HIV-1 Env of strain Ce703010054_2A2 (HIV-1)
[4] = biological target: HIV-1 strain 703357.C02 envelope (gp120) (HIV-1)
[5] = biological target: HIV-1 strain 1006_11_C3_1601 envelope (gp120) (HIV-1)
[6] = biological target: HIV-1 Env of strain Q769.d22 (HIV-1)
[7] = biological target: HIV-1 Env of strain CAAN5342.A2 (HIV-1)
[8] = biological target: HIV-1 Env of strain 6535.3 (HIV-1)
[9] = biological target: HIV-1 strain SC422661.8 envelope (gp120) (HIV-1)
[10] = biological target: HIV-1 strain CNE30 envelope (gp120) (HIV-1)
[11] = biological target: HIV-1 strain WEAU_d15_410_787 envelope (gp120) (HIV-1)
[12] = biological target: HIV-1 Env of strain Du422.1 (HIV-1)
[13] = biological target: HIV-1 strain Ce0682_E4 envelope (gp120) (HIV-1)
[14] = biological target: HIV-1 Env of strain P0402_c2_11 (HIV-1)
[15] = biological target: HIV-1 Env of strain 231965.c01 (HIV-1)
[16] = biological target: HIV-1 Env of strain P1981_C5_3 (HIV-1)
[17] = biological target: HIV-1 strain TRJO4551.58 envelope (gp120) (HIV-1)
[18] = biological target: HIV-1 strain Q769.d22 envelope (gp120) (HIV-1)
[19] = biological target: HIV-1 Env of strain 703357.C02 (HIV-1)
[20] = biological target: HIV-1 Env of strain T255-34 (HIV-1)
[21] = biological target: HIV-1 Env of strain 3415.v1.c1 (HIV-1)
[22] = biological target: HIV-1 strain Ce703010054_2A2 envelope (gp120) (HIV-1)
[23] = biological target: HIV-1 strain 211-9 envelope (gp120) (HIV-1)
[24] = biological target: HIV-1 strain Ce2060_G9 envelope (gp120) (HIV-1)
[25] = biological target: HIV-1 Env of strain REJO4541.67 (HIV-1)
[26] = biological target: HIV-1 Env of strain 928-28 (HIV-1)
[27] = biological target: HIV-1 strain ZM247v1(Rev-) envelope (gp120) (HIV-1)
[28] = biological target: HIV-1 strain 6811.v7.c18 envelope (gp120) (HIV-1)
[29] = biological target: HIV-1 strain 928-28 envelope (gp120) (HIV-1)
[30] = biological target: HIV-1 Env of strain 3718.v3.c11 (HIV-1)
[31] = biological target: HIV-1 Env of strain T257-31 (HIV-1)
[32] = biological target: HIV-1 Env of strain 1006_11_C3_1601 (HIV-1)
[33] = biological target: HIV-1 Env of strain RHPA4259.7 (HIV-1)
[34] = biological target: HIV-1 Env of strain X1254_c3 (HIV-1)
[35] = biological target: HIV-1 Env of strain ZM247v1(Rev-) (HIV-1)
[36] = biological target: HIV-1 Env of strain THRO4156.18 (HIV-1)
[37] = biological target: HIV-1 strain Q461.e2 envelope (gp120) (HIV-1)
[38] = biological target: HIV-1 Env of strain X1193_c1 (HIV-1)
[39] = biological target: HIV-1 strain REJO4541.67 envelope (gp120) (HIV-1)
[40] = biological target: HIV-1 Env of strain 62357_14_D3_4589 (HIV-1)
[41] = biological target: HIV-1 strain T250-4 envelope (gp120) (HIV-1)
[42] = biological target: HIV-1 strain CAP45.2.00.G3 envelope (gp120) (HIV-1)
[43] = biological target: HIV-1 Env of strain 89-F1_2_25 (HIV-1)
[44] = biological target: HIV-1 Env of strain 6545.v4.cl (HIV-1)
[45] = biological target: HIV-1 strain P0402_c2_11 envelope (gp120) (HIV-1)
[46] = biological target: HIV-1 strain X1254_c3 envelope (gp120) (HIV-1)
[47] = biological target: HIV-1 Env of strain 1054_07_TC4_1499 (HIV-1)
[48] = biological target: HIV-1 Env of strain 3301.v1.c24 (HIV-1)
[49] = biological target: HIV-1 Env of strain CNE20 (HIV-1)
[50] = biological target: HIV-1 strain 6535.3 envelope (gp120) (HIV-1)

B1: NIH45-46^G54W IgG (antibody, name in Kabat numbering, V domains shown)
VH: QVRLSQSGGQMKKPGESMRLSCRASGYEFLNCPINWIRLAPGRRPEWMGWLKPRWGAVNYARKFQGRVTMTRDVYSDTAFLELRSLTSDDTAVYFCTRGKYCTARDYYNWDFEHWGRGAPVTVSS
VL: EIVLTQSPATLSLSPGETAIISCRTSQSGSLAWYQQRPGQAPRLVIYSGSTRAAGIPDRFSGSRWGADYNLSISNLESGDFGVYYCQQYEFFGQGTKVQVDI
B1 showed a neutralization IC50 [1] of 0.01 µg/mL, a neutralization IC80 [2] greater than 50 µg/mL and a neutralization IC50 [3] of 0.027 µg/mL. For the same binder, the neutralization IC80 [4] was 17.6 µg/mL, the neutralization IC80 [5] was 0.008 µg/mL and the neutralization IC50 [6] was less than 0.001 µg/mL. It also gave a neutralization IC50 [7] of 0.07 µg/mL, a neutralization IC50 [8] of 0.03 µg/mL and a neutralization IC80 [9] of 0.07 µg/mL. It also gave a neutralization IC80 [10] of 0.196 µg/mL, a neutralization IC80 [11] of 0.003 µg/mL and a neutralization IC50 [12] greater than 50 µg/mL. It also gave a neutralization IC80 [13] of 0.039 µg/mL, a neutralization IC50 [14] of 0.003 µg/mL and a neutralization IC50 [15] of less than 0.001 µg/mL. The neutralization IC50 [16] was 0.02 µg/mL, the neutralization IC80 [17] was 0.05 µg/mL and the neutralization IC80 [18] was 0.009 µg/mL. For the same binder, the neutralization IC50 [19] was 3.43 µg/mL, the improvement of neutralization potency over NIH45-46 [20] was greater than 700 fold and the neutralization IC50 [20] was less than 0.001 µg/mL. It also gave a neutralization IC50 [21] of less than 0.001 µg/mL, a neutralization IC80 [22] of 0.077 µg/mL and a neutralization IC80 [23] greater than 50 µg/mL. For the same binder, the neutralization IC80 [24] was 0.042 µg/mL, the neutralization IC50 [25] was 0.002 µg/mL and the neutralization IC50 [26] was 0.06 µg/mL. For the same binder, the neutralization IC80 [27] was 2.6 µg/mL, the neutralization IC80 [28] was 0.033 µg/mL and the neutralization IC80 [29] was 0.25 µg/mL. The improvement of neutralization potency over NIH45-46 [30] was 2000 fold, the neutralization IC50 [30] was 0.01 µg/mL and the neutralization IC50 [31] was 0.13 µg/mL. It also gave a neutralization IC50 [32] of less than 0.001 µg/mL, a neutralization IC50 [33] of less than 0.001 µg/mL and a neutralization IC50 [34] of 0.002 µg/mL. The neutralization IC50 [35] was 0.32 µg/mL, the neutralization IC50 [36] was 0.54 µg/mL and the neutralization IC80 [37] was 0.091 µg/mL. For the same binder, the neutralization IC50 [38] was less than 0.001 µg/mL, the neutralization IC80 [39] was 0.013 µg/mL and the neutralization IC50 [40] was 0.02 µg/mL. It also gave a neutralization IC80 [41] of 44.9 µg/mL, a neutralization IC80 [42] greater than 50 µg/mL and a neutralization IC50 [43] greater than 50 µg/mL. The neutralization IC50 [44] was 18.9 µg/mL, the neutralization IC80 [45] was 0.023 µg/mL and the neutralization IC80 [46] was 0.018 µg/mL. For the same binder, the neutralization IC50 [47] was 0.04 µg/mL, the neutralization IC50 [48] was less than 0.001 µg/mL and the neutralization IC50 [49] was 0.04 µg/mL. It also gave a neutralization IC80 [50] of 0.13 µg/mL.

B2: NIH45-46^G54F IgG (antibody, name in Kabat numbering, V domains shown)
VH: QVRLSQSGGQMKKPGESMRLSCRASGYEFLNCPINWIRLAPGRRPEWMGWLKPRFGAVNYARKFQGRVTMTRDVYSDTAFLELRSLTSDDTAVYFCTRGKYCTARDYYNWDFEHWGRGAPVTVSS
VL: EIVLTQSPATLSLSPGETAIISCRTSQSGSLAWYQQRPGQAPRLVIYSGSTRAAGIPDRFSGSRWGADYNLSISNLESGDFGVYYCQQYEFFGQGTKVQVDI
B2 was tested, and the neutralization IC50 [1] was 0.03 µg/mL, the neutralization IC80 [2] was greater than 50 µg/mL and the neutralization IC50 [3] was 0.02 µg/mL. It also gave a neutralization IC80 [4] greater than 50 µg/mL, a neutralization IC80 [5] of 0.024 µg/mL and a neutralization IC50 [6] of 0.005 µg/mL. For the same binder, the neutralization IC50 [7] was 0.1 µg/mL, the neutralization IC50 [8] was 0.07 µg/mL and the neutralization IC80 [9] was 0.1 µg/mL. The neutralization IC80 [10] was 0.348 µg/mL, the neutralization IC80 [11] was 0.004 µg/mL and the neutralization IC50 [12] was greater than 50 µg/mL. The neutralization IC80 [13] was 0.056 µg/mL, the neutralization IC50 [14] was 0.008 µg/mL and the neutralization IC50 [15] was 0.022 µg/mL. The neutralization IC50 [16] was 0.03 µg/mL, the neutralization IC80 [17] was 0.08 µg/mL and the neutralization IC80 [18] was 0.023 µg/mL. For the same binder, the neutralization IC50 [19] was 7.91 µg/mL, the neutralization IC50 [20] was 0.03 µg/mL and the neutralization IC50 [21] was less than 0.001 µg/mL. The neutralization IC80 [22] was 0.07 µg/mL, the neutralization IC80 [23] was greater than 50 µg/mL and the neutralization IC80 [24] was 0.085 µg/mL. It also gave a neutralization IC50 [25] of 0.007 µg/mL, a neutralization IC50 [26] of 0.11 µg/mL and a neutralization IC80 [27] of 2.45 µg/mL. The neutralization IC80 [28] was 0.063 µg/mL, the neutralization IC80 [29] was 0.41 µg/mL and the neutralization IC50 [30] was 0.32 µg/mL. For the same binder, the neutralization IC50 [31] was 0.17 µg/mL, the neutralization IC50 [32] was 0.003 µg/mL and the neutralization IC50 [33] was 0.005 µg/mL. The neutralization IC50 [34] was 0.011 µg/mL, the neutralization IC50 [35] was 0.28 µg/mL and the neutralization IC50 [36] was 0.89 µg/mL. The neutralization IC80 [37] was 0.135 µg/mL, the neutralization IC50 [38] was less than 0.001 µg/mL and the neutralization IC80 [39] was 0.028 µg/mL. It also gave a neutralization IC50 [40] of 0.04 µg/mL, a neutralization IC80 [41] greater than 50 µg/mL and a neutralization IC80 [42] greater than 50 µg/mL. For the same binder, the neutralization IC50 [43] was greater than 50 µg/mL, the neutralization IC50 [44] was greater than 50 µg/mL and the neutralization IC80 [45] was 0.047 µg/mL. It also gave a neutralization IC80 [46] of 0.043 µg/mL, a neutralization IC50 [47] of 0.076 µg/mL and a neutralization IC50 [48] of 0.001 µg/mL. For the same binder, the neutralization IC50 [49] was 0.53 µg/mL and the neutralization IC80 [50] was 0.27 µg/mL.

From patent publication US20130209454A1
